Results from the supplement of paper PMC9112550, “Optimization of the antimicrobial peptide Bac7 by deep mutational scanning” (BMC Biology, 2022).

Test system: Escherichia coli TOP10
Assay: shrunken log2 fold change of peptide-encoding DNA abundance (4.5 h post-induction vs induction); higher = less antimicrobial activity (less host growth inhibition)
Details: time post-induction: 4.5 h; library: site-saturation at positions 5, 18, 19, 20
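Further: peptides expressed intracellularly from a pBAD plasmid library in pooled LB shake-flask culture, induced with 0.3% L-arabinose, DNA abundance read by NGS, three biological replicates, DESeq2 with apeglm shrinkage.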

| Sequence | shrunken log2 fold change |
| --- | --- |
| RRIRMRPPRLPRPRPRPNFDPRP | 0.622 |
| RRIRGRPPRLPRPRPRPYGWPRP | -0.0363 |
| RRIRVRPPRLPRPRPRPTFRPRP | 0.218 |
| RRIRKRPPRLPRPRPRPHIVPRP | -0.0154 |
| RRIRIRPPRLPRPRPRPSQCPRP | -0.0584 |
| RRIRWRPPRLPRPRPRPDGKPRP | 0.00353 |
| RRIRGRPPRLPRPRPRPKMGPRP | 1.21 |
| RRIRWRPPRLPRPRPRPAGLPRP | 0.289 |
| RRIRWRPPRLPRPRPRPYLEPRP | -0.112 |
| RRIRHRPPRLPRPRPRPCINPRP | -0.306 |
| RRIRHRPPRLPRPRPRPVGTPRP | 0.0773 |
| RRIRARPPRLPRPRPRPGLDPRP | 0.419 |
| RRIRRRPPRLPRPRPRPYFEPRP | -0.562 |
| RRIRLRPPRLPRPRPRPAWQPRP | 0.202 |
| RRIRWRPPRLPRPRPRPFTHPRP | -0.297 |
| RRIRTRPPRLPRPRPRPKYKPRP | -0.407 |
| RRIRWRPPRLPRPRPRPLNSPRP | -0.107 |
| RRIRMRPPRLPRPRPRPRMIPRP | -0.0577 |
| RRIRFRPPRLPRPRPRPCREPRP | -0.0892 |
| RRIRQRPPRLPRPRPRPFNNPRP | -0.476 |
| RRIRARPPRLPRPRPRPVIAPRP | 0.161 |
| RRIRQRPPRLPRPRPRPNQTPRP | -0.0346 |
| RRIRDRPPRLPRPRPRPYLMPRP | -0.187 |
| RRIRARPPRLPRPRPRPYMEPRP | -0.348 |
| RRIRRRPPRLPRPRPRPGRVPRP | 0.593 |

| Sequence | shrunken log2 fold change |
| --- | --- |
| RRIRERPPRLPRPRPRPPYAPRP | -0.208 |
| RRIRARPPRLPRPRPRPVGRPRP | 0.691 |
| RRIRCRPPRLPRPRPRPRFDPRP | 0.136 |
| RRIRWRPPRLPRPRPRPEEWPRP | -0.0123 |
| RRIRNRPPRLPRPRPRPKYVPRP | -0.00968 |
| RRIRRRPPRLPRPRPRPDVQPRP | -0.0867 |
| RRIRWRPPRLPRPRPRPQADPRP | -0.104 |
| RRIRDRPPRLPRPRPRPSMFPRP | -0.144 |
| RRIRRRPPRLPRPRPRPQYQPRP | -0.207 |
| RRIRNRPPRLPRPRPRPWLMPRP | -0.13 |
| RRIRKRPPRLPRPRPRPQILPRP | -0.144 |
| RRIRWRPPRLPRPRPRPHRYPRP | -0.15 |
| RRIRCRPPRLPRPRPRPQPIPRP | -0.335 |
| RRIRYRPPRLPRPRPRPRCFPRP | -0.152 |
| RRIRLRPPRLPRPRPRPIKIPRP | 0.0507 |
| RRIRNRPPRLPRPRPRPKYEPRP | -0.167 |
| RRIRYRPPRLPRPRPRPAKDPRP | -0.151 |
| RRIRRRPPRLPRPRPRPTFRPRP | 0.0132 |
| RRIRQRPPRLPRPRPRPLMKPRP | 0.158 |
| RRIRLRPPRLPRPRPRPMHDPRP | -0.134 |
| RRIRMRPPRLPRPRPRPQGAPRP | 0.124 |
| RRIRERPPRLPRPRPRPLSAPRP | -0.229 |
| RRIRWRPPRLPRPRPRPDEKPRP | 0.0625 |
| RRIRERPPRLPRPRPRPNGDPRP | -0.0249 |
| RRIRPRPPRLPRPRPRPWGTPRP | -0.0725 |

| Sequence | shrunken log2 fold change |
| --- | --- |
| RRIRMRPPRLPRPRPRPFREPRP | 0.2 |
| RRIRNRPPRLPRPRPRPHMHPRP | -0.582 |
| RRIRIRPPRLPRPRPRPMAEPRP | -0.0152 |
| RRIRGRPPRLPRPRPRPGLIPRP | -0.0196 |
| RRIRDRPPRLPRPRPRPEVVPRP | -0.00213 |
| RRIRSRPPRLPRPRPRPWKKPRP | -0.162 |
| RRIRLRPPRLPRPRPRPHCDPRP | 0.00399 |
| RRIRMRPPRLPRPRPRPFYMPRP | -0.054 |
| RRIRLRPPRLPRPRPRPAERPRP | 0.139 |
| RRIRIRPPRLPRPRPRPMLIPRP | -0.21 |
| RRIRSRPPRLPRPRPRPYTEPRP | -0.186 |
| RRIRSRPPRLPRPRPRPEKLPRP | -0.264 |
| RRIRGRPPRLPRPRPRPTKHPRP | 0.385 |
| RRIRRRPPRLPRPRPRPNLYPRP | -0.0246 |
| RRIRSRPPRLPRPRPRPHGLPRP | -0.0195 |
| RRIRSRPPRLPRPRPRPAKLPRP | 0.195 |
| RRIRMRPPRLPRPRPRPGTSPRP | 0.24 |
| RRIRMRPPRLPRPRPRPNHAPRP | -0.113 |
| RRIRARPPRLPRPRPRPWSGPRP | -0.0707 |
| RRIRIRPPRLPRPRPRPAYFPRP | -0.411 |
| RRIRARPPRLPRPRPRPIQWPRP | 0.0649 |
| RRIRERPPRLPRPRPRPNMAPRP | -0.163 |
| RRIRMRPPRLPRPRPRPWRTPRP | 0.324 |
| RRIRVRPPRLPRPRPRPELVPRP | 0.14 |
| RRIRKRPPRLPRPRPRPTYRPRP | 0.647 |

| Sequence | shrunken log2 fold change |
| --- | --- |
| RRIRCRPPRLPRPRPRPTLEPRP | 0.0452 |
| RRIRARPPRLPRPRPRPVCMPRP | 0.226 |
| RRIRLRPPRLPRPRPRPSYFPRP | -0.452 |
| RRIRIRPPRLPRPRPRPMHDPRP | -0.152 |
| RRIRNRPPRLPRPRPRPRMEPRP | -0.0307 |
| RRIRERPPRLPRPRPRPHSAPRP | -0.179 |
| RRIRGRPPRLPRPRPRPPANPRP | 1.12 |
| RRIRQRPPRLPRPRPRPLQPPRP | -0.0373 |
| RRIRWRPPRLPRPRPRPFTKPRP | -0.151 |
| RRIRLRPPRLPRPRPRPFQWPRP | -0.0972 |
| RRIRQRPPRLPRPRPRPIHLPRP | -0.137 |
| RRIRQRPPRLPRPRPRPNSVPRP | -0.265 |
| RRIRSRPPRLPRPRPRPDMIPRP | -0.00286 |
| RRIRSRPPRLPRPRPRPINGPRP | -0.00748 |
| RRIRARPPRLPRPRPRPTEYPRP | -0.103 |
| RRIRPRPPRLPRPRPRPWCAPRP | 0.208 |
| RRIRYRPPRLPRPRPRPTGEPRP | -0.0166 |
| RRIRDRPPRLPRPRPRPECHPRP | 0.479 |
| RRIRWRPPRLPRPRPRPSPIPRP | -0.0871 |
| RRIRKRPPRLPRPRPRPNWRPRP | 1.32 |
| RRIRFRPPRLPRPRPRPWRWPRP | 0.0911 |
| RRIRFRPPRLPRPRPRPIEYPRP | -0.00801 |
| RRIRNRPPRLPRPRPRPCRTPRP | -0.124 |
| RRIRFRPPRLPRPRPRPYGCPRP | -0.531 |
| RRIRMRPPRLPRPRPRPTLQPRP | 0.13 |

| Sequence | shrunken log2 fold change |
| --- | --- |
| RRIRIRPPRLPRPRPRPHMFPRP | -1 |
| RRIRRRPPRLPRPRPRPKVFPRP | -0.00912 |
| RRIRSRPPRLPRPRPRPNCRPRP | -0.0318 |
| RRIRARPPRLPRPRPRPWSRPRP | -0.151 |
| RRIRMRPPRLPRPRPRPQFCPRP | 0.0736 |
| RRIRQRPPRLPRPRPRPSCMPRP | -0.508 |
| RRIRWRPPRLPRPRPRPYMGPRP | -0.106 |
| RRIRFRPPRLPRPRPRPTHHPRP | 0.781 |
| RRIRWRPPRLPRPRPRPMWDPRP | 0.157 |
| RRIRGRPPRLPRPRPRPWYEPRP | -0.14 |
| RRIRRRPPRLPRPRPRPGAQPRP | 0.352 |
| RRIRDRPPRLPRPRPRPGKKPRP | -0.00968 |
| RRIRQRPPRLPRPRPRPMPFPRP | -0.0697 |
| RRIRPRPPRLPRPRPRPMGAPRP | 0.117 |
| RRIRDRPPRLPRPRPRPFGGPRP | -0.0275 |
| RRIRFRPPRLPRPRPRPSMNPRP | 0.274 |
| RRIRGRPPRLPRPRPRPRIWPRP | 0.836 |
| RRIRQRPPRLPRPRPRPVWFPRP | 0.111 |
| RRIRLRPPRLPRPRPRPKWTPRP | 0.0422 |
| RRIRRRPPRLPRPRPRPALMPRP | 0.195 |
| RRIRKRPPRLPRPRPRPMQNPRP | 0.282 |
| RRIRVRPPRLPRPRPRPMVNPRP | -0.158 |
| RRIRWRPPRLPRPRPRPVFEPRP | 0.333 |
| RRIRLRPPRLPRPRPRPHTGPRP | -0.158 |
| RRIRWRPPRLPRPRPRPEMMPRP | 0.399 |

| Sequence | shrunken log2 fold change |
| --- | --- |
| RRIRDRPPRLPRPRPRPMAHPRP | -0.00211 |
| RRIRHRPPRLPRPRPRPVMFPRP | -0.0942 |
| RRIRERPPRLPRPRPRPNYEPRP | -0.182 |
| RRIRARPPRLPRPRPRPRMRPRP | 0.954 |
| RRIRMRPPRLPRPRPRPDWWPRP | 0.218 |
| RRIRCRPPRLPRPRPRPQISPRP | -0.785 |
| RRIRPRPPRLPRPRPRPKFIPRP | -0.308 |
| RRIRLRPPRLPRPRPRPDVCPRP | 0.0271 |
| RRIRQRPPRLPRPRPRPYLRPRP | -0.176 |
| RRIRYRPPRLPRPRPRPHAKPRP | -0.0339 |
| RRIRIRPPRLPRPRPRPCLDPRP | -0.0653 |
| RRIRQRPPRLPRPRPRPKWHPRP | 0.48 |
| RRIRWRPPRLPRPRPRPIEGPRP | -0.000175 |
| RRIRTRPPRLPRPRPRPNEDPRP | -0.0528 |
| RRIRERPPRLPRPRPRPIRGPRP | 0.0978 |
| RRIRRRPPRLPRPRPRPSNIPRP | -0.528 |
| RRIRCRPPRLPRPRPRPLAIPRP | -0.0224 |
| RRIRNRPPRLPRPRPRPCTGPRP | -0.0472 |
| RRIRNRPPRLPRPRPRPQMWPRP | -0.234 |
| RRIRIRPPRLPRPRPRPGQVPRP | -0.0393 |
| RRIRYRPPRLPRPRPRPLFMPRP | -1.24 |
| RRIRNRPPRLPRPRPRPCHAPRP | -0.37 |
| RRIRSRPPRLPRPRPRPNKRPRP | -0.174 |
| RRIRHRPPRLPRPRPRPASKPRP | -0.0351 |
| RRIRSRPPRLPRPRPRPVWYPRP | 0.154 |
